This data set can be described thus: Reductive amination of 2-oxonon-8-enoic acid to (S)-LCAA by leucine dehydrogenase (NADH consumption at 340 nm, HPLC of aliquots). Type of data set: biochemical. The note with it: reaction described in Example 1, conversion of 2-oxonon-8-enoic acid to (S)-LCAA; for enzymatic activity (reaction rate) relative to wild-type B. cereus LDH: FIG. 5. The method, then:
To produce (S)-LCAA from 2-oxonon-8-enoic acid, a reaction was performed under the following conditions. In 200 mL total volume and a buffered pH of 9.5, the aqueous reaction mixture contained 10 mM 2-oxonon-8-enoic acid, 12 mM glucose, 1 mM NAD^+, 50 mg of purified glucose dehydrogenase (GDH-105; Codexis, Redwood City, Calif.), 2 M NH4Cl/OH, and approximately 60 mL/L of purified leucine dehydrogenase cell-free extract. FIG. 2 depicts the reaction scheme for converting 2-oxonon-8-enoic acid to (S)-LCAA using leucine dehydrogenase. The mixture was incubated at 30° C. and with shaking at 150 rpm for four hours.
Enzyme activity was measured spectrophotometrically by monitoring the consumption of NADH in the reductive amination at 340 nm. Activity was defined as the number of micromoles of NADH consumed in 1 minute (μmol min^−1). Aliquots of the reaction mixture were obtained periodically during the course of the reaction and subjected to analysis by high performance liquid chromatography (HPLC).
To increase the affinity of LDH for the 2-oxonon-8-enoic acid substrate and, thus, enhance the enzyme's activity for producing (S)-LCAA, amino acid substitutions were made within the region of LDH that binds to the substrate. Specifically, amino acid substitutions were introduced at position 42 of B. cereus leucine dehydrogenase (SEQ ID NO:1) using standard mutagenesis techniques. Wild-type B. cereus LDH, along with 19 variants (one for each amino acid substitution at position 42) were expressed and isolated as described in Example 1. The enzymatic activity of the variant proteins was evaluated alongside wild-type B. cereus LDH in the reaction described in Example 1. […] While the disclosure is not bound by any particular theory or mechanism of action, the substitutions that increased the enzymatic activity of the LDH enzyme are believed to have increased the depth of the substrate binding pocket in LDH and thereby increased the affinity of LDH for the 2-oxonon-8-enoic acid substrate.

Ten molecules from patent publication US10113152B1, “Variant polypeptides capable of aminating aliphatic alpha keto acids” (AbbVie Inc., priority 2014, dated 2018) can be followed below.

B1: L42I: variant B. cereus leucine dehydrogenase, leucine at position 42 substituted by isoleucine, SEQ ID NO:4 (protein)
chain: MTLEIFEYLEKYDYEQVVFCQDKESGLKAIIAIHDTTLGPAIGGTRMWTYDSEEAAIEDALRLAKGMTYKNAAAGLNLGGAKTVIIGDPRKDKSEAMFRALGRYIQGLNGRYITAEDVGTTVDDMDIIHEETDFVTGISPSFGSSGNPSPVTAYGVYRGMKAAAKEAFGTDNLEGKVIAVQGVGNVAYHLCKHLHAEGAKLIVTDINKEAVQRAVEEFGASAVEPNEIYGVECDIYAPCALGATVNDETIPQLKAKVIAGSANNQLKEDRHGDIIHEMGIVYAPDYVINAGGVINVADELYGYNRERALKRVESIYDTIAKVIEISKRDGIATYVAADRLAEERIASLKNSRSTYLRNGHDIISRR
In the case of B1, the “enzymatic activity (reaction rate) relative to wild-type B. cereus LDH” value is recorded as “significantly enhanced activity”.

B2: L42A: variant B. cereus leucine dehydrogenase, leucine at position 42 substituted by alanine, SEQ ID NO:20 (protein)
chain: MTLEIFEYLEKYDYEQVVFCQDKESGLKAIIAIHDTTLGPAAGGTRMWTYDSEEAAIEDALRLAKGMTYKNAAAGLNLGGAKTVIIGDPRKDKSEAMFRALGRYIQGLNGRYITAEDVGTTVDDMDIIHEETDFVTGISPSFGSSGNPSPVTAYGVYRGMKAAAKEAFGTDNLEGKVIAVQGVGNVAYHLCKHLHAEGAKLIVTDINKEAVQRAVEEFGASAVEPNEIYGVECDIYAPCALGATVNDETIPQLKAKVIAGSANNQLKEDRHGDIIHEMGIVYAPDYVINAGGVINVADELYGYNRERALKRVESIYDTIAKVIEISKRDGIATYVAADRLAEERIASLKNSRSTYLRNGHDIISRR
Consider B2, for which the “enzymatic activity (reaction rate) relative to wild-type B. cereus LDH” value is “enhanced activity”.

B3: L42D: variant B. cereus leucine dehydrogenase (SEQ ID NO:1) with aspartic acid at position 42 (protein, listed as Bacillus cereus)
chain: MTLEIFEYLEKYDYEQVVFCQDKESGLKAIIAIHDTTLGPADGGTRMWTYDSEEAAIEDALRLAKGMTYKNAAAGLNLGGAKTVIIGDPRKDKSEAMFRALGRYIQGLNGRYITAEDVGTTVDDMDIIHEETDFVTGISPSFGSSGNPSPVTAYGVYRGMKAAAKEAFGTDNLEGKVIAVQGVGNVAYHLCKHLHAEGAKLIVTDINKEAVQRAVEEFGASAVEPNEIYGVECDIYAPCALGATVNDETIPQLKAKVIAGSANNQLKEDRHGDIIHEMGIVYAPDYVINAGGVINVADELYGYNRERALKRVESIYDTIAKVIEISKRDGIATYVAADRLAEERIASLKNSRSTYLRNGHDIISRR
Consider B3, for which the “enzymatic activity (reaction rate) relative to wild-type B. cereus LDH” value is reported as “reduced activity”.

B4: L42T: variant B. cereus leucine dehydrogenase (SEQ ID NO:1) with threonine at position 42 (protein, listed as Bacillus cereus)
chain: MTLEIFEYLEKYDYEQVVFCQDKESGLKAIIAIHDTTLGPATGGTRMWTYDSEEAAIEDALRLAKGMTYKNAAAGLNLGGAKTVIIGDPRKDKSEAMFRALGRYIQGLNGRYITAEDVGTTVDDMDIIHEETDFVTGISPSFGSSGNPSPVTAYGVYRGMKAAAKEAFGTDNLEGKVIAVQGVGNVAYHLCKHLHAEGAKLIVTDINKEAVQRAVEEFGASAVEPNEIYGVECDIYAPCALGATVNDETIPQLKAKVIAGSANNQLKEDRHGDIIHEMGIVYAPDYVINAGGVINVADELYGYNRERALKRVESIYDTIAKVIEISKRDGIATYVAADRLAEERIASLKNSRSTYLRNGHDIISRR
Take B4: the “enzymatic activity (reaction rate) relative to wild-type B. cereus LDH” value is reported as “enhanced activity”.

B5: L42K: variant B. cereus leucine dehydrogenase (SEQ ID NO:1) with lysine at position 42 (protein, listed as Bacillus cereus)
chain: MTLEIFEYLEKYDYEQVVFCQDKESGLKAIIAIHDTTLGPAKGGTRMWTYDSEEAAIEDALRLAKGMTYKNAAAGLNLGGAKTVIIGDPRKDKSEAMFRALGRYIQGLNGRYITAEDVGTTVDDMDIIHEETDFVTGISPSFGSSGNPSPVTAYGVYRGMKAAAKEAFGTDNLEGKVIAVQGVGNVAYHLCKHLHAEGAKLIVTDINKEAVQRAVEEFGASAVEPNEIYGVECDIYAPCALGATVNDETIPQLKAKVIAGSANNQLKEDRHGDIIHEMGIVYAPDYVINAGGVINVADELYGYNRERALKRVESIYDTIAKVIEISKRDGIATYVAADRLAEERIASLKNSRSTYLRNGHDIISRR
As for B5, the “enzymatic activity (reaction rate) relative to wild-type B. cereus LDH” value is “reduced activity”.

B6: L42V: variant B. cereus leucine dehydrogenase, leucine at position 42 substituted by valine, SEQ ID NO:5 (protein)
chain: MTLEIFEYLEKYDYEQVVFCQDKESGLKAIIAIHDTTLGPAVGGTRMWTYDSEEAAIEDALRLAKGMTYKNAAAGLNLGGAKTVIIGDPRKDKSEAMFRALGRYIQGLNGRYITAEDVGTTVDDMDIIHEETDFVTGISPSFGSSGNPSPVTAYGVYRGMKAAAKEAFGTDNLEGKVIAVQGVGNVAYHLCKHLHAEGAKLIVTDINKEAVQRAVEEFGASAVEPNEIYGVECDIYAPCALGATVNDETIPQLKAKVIAGSANNQLKEDRHGDIIHEMGIVYAPDYVINAGGVINVADELYGYNRERALKRVESIYDTIAKVIEISKRDGIATYVAADRLAEERIASLKNSRSTYLRNGHDIISRR
In the case of B6, the “increase in reaction rate relative to wild-type B. cereus LDH” value is on record as “approximately 1×10^3” and the “enzymatic activity (reaction rate) relative to wild-type B. cereus LDH” value is “significantly enhanced activity”.

B7: L42G: variant B. cereus leucine dehydrogenase, leucine at position 42 substituted by glycine, SEQ ID NO:6 (protein)
chain: MTLEIFEYLEKYDYEQVVFCQDKESGLKAIIAIHDTTLGPAGGGTRMWTYDSEEAAIEDALRLAKGMTYKNAAAGLNLGGAKTVIIGDPRKDKSEAMFRALGRYIQGLNGRYITAEDVGTTVDDMDIIHEETDFVTGISPSFGSSGNPSPVTAYGVYRGMKAAAKEAFGTDNLEGKVIAVQGVGNVAYHLCKHLHAEGAKLIVTDINKEAVQRAVEEFGASAVEPNEIYGVECDIYAPCALGATVNDETIPQLKAKVIAGSANNQLKEDRHGDIIHEMGIVYAPDYVINAGGVINVADELYGYNRERALKRVESIYDTIAKVIEISKRDGIATYVAADRLAEERIASLKNSRSTYLRNGHDIISRR
For the molecule B7, the “increase in reaction rate relative to wild-type B. cereus LDH” value is on record as “approximately 1×10^3” and the “enzymatic activity (reaction rate) relative to wild-type B. cereus LDH” value is “significantly enhanced activity”.

B8: L42H: variant B. cereus leucine dehydrogenase (SEQ ID NO:1) with histidine at position 42 (protein, listed as Bacillus cereus)
chain: MTLEIFEYLEKYDYEQVVFCQDKESGLKAIIAIHDTTLGPAHGGTRMWTYDSEEAAIEDALRLAKGMTYKNAAAGLNLGGAKTVIIGDPRKDKSEAMFRALGRYIQGLNGRYITAEDVGTTVDDMDIIHEETDFVTGISPSFGSSGNPSPVTAYGVYRGMKAAAKEAFGTDNLEGKVIAVQGVGNVAYHLCKHLHAEGAKLIVTDINKEAVQRAVEEFGASAVEPNEIYGVECDIYAPCALGATVNDETIPQLKAKVIAGSANNQLKEDRHGDIIHEMGIVYAPDYVINAGGVINVADELYGYNRERALKRVESIYDTIAKVIEISKRDGIATYVAADRLAEERIASLKNSRSTYLRNGHDIISRR
Take B8: the “enzymatic activity (reaction rate) relative to wild-type B. cereus LDH” value is on record as “reduced activity”.

B9: L42S: variant B. cereus leucine dehydrogenase (SEQ ID NO:1) with serine at position 42 (protein, listed as Bacillus cereus)
chain: MTLEIFEYLEKYDYEQVVFCQDKESGLKAIIAIHDTTLGPASGGTRMWTYDSEEAAIEDALRLAKGMTYKNAAAGLNLGGAKTVIIGDPRKDKSEAMFRALGRYIQGLNGRYITAEDVGTTVDDMDIIHEETDFVTGISPSFGSSGNPSPVTAYGVYRGMKAAAKEAFGTDNLEGKVIAVQGVGNVAYHLCKHLHAEGAKLIVTDINKEAVQRAVEEFGASAVEPNEIYGVECDIYAPCALGATVNDETIPQLKAKVIAGSANNQLKEDRHGDIIHEMGIVYAPDYVINAGGVINVADELYGYNRERALKRVESIYDTIAKVIEISKRDGIATYVAADRLAEERIASLKNSRSTYLRNGHDIISRR
Turning to B9, the “enzymatic activity (reaction rate) relative to wild-type B. cereus LDH” value was “enhanced activity”.

B10: L42Y: variant B. cereus leucine dehydrogenase (SEQ ID NO:1) with tyrosine at position 42 (protein, listed as Bacillus cereus)
chain: MTLEIFEYLEKYDYEQVVFCQDKESGLKAIIAIHDTTLGPAYGGTRMWTYDSEEAAIEDALRLAKGMTYKNAAAGLNLGGAKTVIIGDPRKDKSEAMFRALGRYIQGLNGRYITAEDVGTTVDDMDIIHEETDFVTGISPSFGSSGNPSPVTAYGVYRGMKAAAKEAFGTDNLEGKVIAVQGVGNVAYHLCKHLHAEGAKLIVTDINKEAVQRAVEEFGASAVEPNEIYGVECDIYAPCALGATVNDETIPQLKAKVIAGSANNQLKEDRHGDIIHEMGIVYAPDYVINAGGVINVADELYGYNRERALKRVESIYDTIAKVIEISKRDGIATYVAADRLAEERIASLKNSRSTYLRNGHDIISRR
Take B10: the “enzymatic activity (reaction rate) relative to wild-type B. cereus LDH” value was “reduced activity”.
